# Measured values: US20190203302A1, “BIOMARKER C[…]-1 AS ACTIVE INGREDIENT, FOR DIAGNOSIS OF RADIATION-RESISTANT CANCER OR PREDICTION OF RADIATION THERAPY PROGNOSIS” (UNIVERSITY OF ULSAN FOUNDATION FOR INDUSTRY COOPERATION, priority 2016, published 2019)
# Target: T1, LRP-1 (Homo sapiens, UniProt Q07954)
# T1 construct: Proteins were extracted from colon cancer tissues of each case according to radiation irradiation; from tissue; host or cells: patient colon cancer tissue (0 Gy / 2 Gy) transplanted and subcultured in nude mice
# T1 sequence (Q07954 20-4544): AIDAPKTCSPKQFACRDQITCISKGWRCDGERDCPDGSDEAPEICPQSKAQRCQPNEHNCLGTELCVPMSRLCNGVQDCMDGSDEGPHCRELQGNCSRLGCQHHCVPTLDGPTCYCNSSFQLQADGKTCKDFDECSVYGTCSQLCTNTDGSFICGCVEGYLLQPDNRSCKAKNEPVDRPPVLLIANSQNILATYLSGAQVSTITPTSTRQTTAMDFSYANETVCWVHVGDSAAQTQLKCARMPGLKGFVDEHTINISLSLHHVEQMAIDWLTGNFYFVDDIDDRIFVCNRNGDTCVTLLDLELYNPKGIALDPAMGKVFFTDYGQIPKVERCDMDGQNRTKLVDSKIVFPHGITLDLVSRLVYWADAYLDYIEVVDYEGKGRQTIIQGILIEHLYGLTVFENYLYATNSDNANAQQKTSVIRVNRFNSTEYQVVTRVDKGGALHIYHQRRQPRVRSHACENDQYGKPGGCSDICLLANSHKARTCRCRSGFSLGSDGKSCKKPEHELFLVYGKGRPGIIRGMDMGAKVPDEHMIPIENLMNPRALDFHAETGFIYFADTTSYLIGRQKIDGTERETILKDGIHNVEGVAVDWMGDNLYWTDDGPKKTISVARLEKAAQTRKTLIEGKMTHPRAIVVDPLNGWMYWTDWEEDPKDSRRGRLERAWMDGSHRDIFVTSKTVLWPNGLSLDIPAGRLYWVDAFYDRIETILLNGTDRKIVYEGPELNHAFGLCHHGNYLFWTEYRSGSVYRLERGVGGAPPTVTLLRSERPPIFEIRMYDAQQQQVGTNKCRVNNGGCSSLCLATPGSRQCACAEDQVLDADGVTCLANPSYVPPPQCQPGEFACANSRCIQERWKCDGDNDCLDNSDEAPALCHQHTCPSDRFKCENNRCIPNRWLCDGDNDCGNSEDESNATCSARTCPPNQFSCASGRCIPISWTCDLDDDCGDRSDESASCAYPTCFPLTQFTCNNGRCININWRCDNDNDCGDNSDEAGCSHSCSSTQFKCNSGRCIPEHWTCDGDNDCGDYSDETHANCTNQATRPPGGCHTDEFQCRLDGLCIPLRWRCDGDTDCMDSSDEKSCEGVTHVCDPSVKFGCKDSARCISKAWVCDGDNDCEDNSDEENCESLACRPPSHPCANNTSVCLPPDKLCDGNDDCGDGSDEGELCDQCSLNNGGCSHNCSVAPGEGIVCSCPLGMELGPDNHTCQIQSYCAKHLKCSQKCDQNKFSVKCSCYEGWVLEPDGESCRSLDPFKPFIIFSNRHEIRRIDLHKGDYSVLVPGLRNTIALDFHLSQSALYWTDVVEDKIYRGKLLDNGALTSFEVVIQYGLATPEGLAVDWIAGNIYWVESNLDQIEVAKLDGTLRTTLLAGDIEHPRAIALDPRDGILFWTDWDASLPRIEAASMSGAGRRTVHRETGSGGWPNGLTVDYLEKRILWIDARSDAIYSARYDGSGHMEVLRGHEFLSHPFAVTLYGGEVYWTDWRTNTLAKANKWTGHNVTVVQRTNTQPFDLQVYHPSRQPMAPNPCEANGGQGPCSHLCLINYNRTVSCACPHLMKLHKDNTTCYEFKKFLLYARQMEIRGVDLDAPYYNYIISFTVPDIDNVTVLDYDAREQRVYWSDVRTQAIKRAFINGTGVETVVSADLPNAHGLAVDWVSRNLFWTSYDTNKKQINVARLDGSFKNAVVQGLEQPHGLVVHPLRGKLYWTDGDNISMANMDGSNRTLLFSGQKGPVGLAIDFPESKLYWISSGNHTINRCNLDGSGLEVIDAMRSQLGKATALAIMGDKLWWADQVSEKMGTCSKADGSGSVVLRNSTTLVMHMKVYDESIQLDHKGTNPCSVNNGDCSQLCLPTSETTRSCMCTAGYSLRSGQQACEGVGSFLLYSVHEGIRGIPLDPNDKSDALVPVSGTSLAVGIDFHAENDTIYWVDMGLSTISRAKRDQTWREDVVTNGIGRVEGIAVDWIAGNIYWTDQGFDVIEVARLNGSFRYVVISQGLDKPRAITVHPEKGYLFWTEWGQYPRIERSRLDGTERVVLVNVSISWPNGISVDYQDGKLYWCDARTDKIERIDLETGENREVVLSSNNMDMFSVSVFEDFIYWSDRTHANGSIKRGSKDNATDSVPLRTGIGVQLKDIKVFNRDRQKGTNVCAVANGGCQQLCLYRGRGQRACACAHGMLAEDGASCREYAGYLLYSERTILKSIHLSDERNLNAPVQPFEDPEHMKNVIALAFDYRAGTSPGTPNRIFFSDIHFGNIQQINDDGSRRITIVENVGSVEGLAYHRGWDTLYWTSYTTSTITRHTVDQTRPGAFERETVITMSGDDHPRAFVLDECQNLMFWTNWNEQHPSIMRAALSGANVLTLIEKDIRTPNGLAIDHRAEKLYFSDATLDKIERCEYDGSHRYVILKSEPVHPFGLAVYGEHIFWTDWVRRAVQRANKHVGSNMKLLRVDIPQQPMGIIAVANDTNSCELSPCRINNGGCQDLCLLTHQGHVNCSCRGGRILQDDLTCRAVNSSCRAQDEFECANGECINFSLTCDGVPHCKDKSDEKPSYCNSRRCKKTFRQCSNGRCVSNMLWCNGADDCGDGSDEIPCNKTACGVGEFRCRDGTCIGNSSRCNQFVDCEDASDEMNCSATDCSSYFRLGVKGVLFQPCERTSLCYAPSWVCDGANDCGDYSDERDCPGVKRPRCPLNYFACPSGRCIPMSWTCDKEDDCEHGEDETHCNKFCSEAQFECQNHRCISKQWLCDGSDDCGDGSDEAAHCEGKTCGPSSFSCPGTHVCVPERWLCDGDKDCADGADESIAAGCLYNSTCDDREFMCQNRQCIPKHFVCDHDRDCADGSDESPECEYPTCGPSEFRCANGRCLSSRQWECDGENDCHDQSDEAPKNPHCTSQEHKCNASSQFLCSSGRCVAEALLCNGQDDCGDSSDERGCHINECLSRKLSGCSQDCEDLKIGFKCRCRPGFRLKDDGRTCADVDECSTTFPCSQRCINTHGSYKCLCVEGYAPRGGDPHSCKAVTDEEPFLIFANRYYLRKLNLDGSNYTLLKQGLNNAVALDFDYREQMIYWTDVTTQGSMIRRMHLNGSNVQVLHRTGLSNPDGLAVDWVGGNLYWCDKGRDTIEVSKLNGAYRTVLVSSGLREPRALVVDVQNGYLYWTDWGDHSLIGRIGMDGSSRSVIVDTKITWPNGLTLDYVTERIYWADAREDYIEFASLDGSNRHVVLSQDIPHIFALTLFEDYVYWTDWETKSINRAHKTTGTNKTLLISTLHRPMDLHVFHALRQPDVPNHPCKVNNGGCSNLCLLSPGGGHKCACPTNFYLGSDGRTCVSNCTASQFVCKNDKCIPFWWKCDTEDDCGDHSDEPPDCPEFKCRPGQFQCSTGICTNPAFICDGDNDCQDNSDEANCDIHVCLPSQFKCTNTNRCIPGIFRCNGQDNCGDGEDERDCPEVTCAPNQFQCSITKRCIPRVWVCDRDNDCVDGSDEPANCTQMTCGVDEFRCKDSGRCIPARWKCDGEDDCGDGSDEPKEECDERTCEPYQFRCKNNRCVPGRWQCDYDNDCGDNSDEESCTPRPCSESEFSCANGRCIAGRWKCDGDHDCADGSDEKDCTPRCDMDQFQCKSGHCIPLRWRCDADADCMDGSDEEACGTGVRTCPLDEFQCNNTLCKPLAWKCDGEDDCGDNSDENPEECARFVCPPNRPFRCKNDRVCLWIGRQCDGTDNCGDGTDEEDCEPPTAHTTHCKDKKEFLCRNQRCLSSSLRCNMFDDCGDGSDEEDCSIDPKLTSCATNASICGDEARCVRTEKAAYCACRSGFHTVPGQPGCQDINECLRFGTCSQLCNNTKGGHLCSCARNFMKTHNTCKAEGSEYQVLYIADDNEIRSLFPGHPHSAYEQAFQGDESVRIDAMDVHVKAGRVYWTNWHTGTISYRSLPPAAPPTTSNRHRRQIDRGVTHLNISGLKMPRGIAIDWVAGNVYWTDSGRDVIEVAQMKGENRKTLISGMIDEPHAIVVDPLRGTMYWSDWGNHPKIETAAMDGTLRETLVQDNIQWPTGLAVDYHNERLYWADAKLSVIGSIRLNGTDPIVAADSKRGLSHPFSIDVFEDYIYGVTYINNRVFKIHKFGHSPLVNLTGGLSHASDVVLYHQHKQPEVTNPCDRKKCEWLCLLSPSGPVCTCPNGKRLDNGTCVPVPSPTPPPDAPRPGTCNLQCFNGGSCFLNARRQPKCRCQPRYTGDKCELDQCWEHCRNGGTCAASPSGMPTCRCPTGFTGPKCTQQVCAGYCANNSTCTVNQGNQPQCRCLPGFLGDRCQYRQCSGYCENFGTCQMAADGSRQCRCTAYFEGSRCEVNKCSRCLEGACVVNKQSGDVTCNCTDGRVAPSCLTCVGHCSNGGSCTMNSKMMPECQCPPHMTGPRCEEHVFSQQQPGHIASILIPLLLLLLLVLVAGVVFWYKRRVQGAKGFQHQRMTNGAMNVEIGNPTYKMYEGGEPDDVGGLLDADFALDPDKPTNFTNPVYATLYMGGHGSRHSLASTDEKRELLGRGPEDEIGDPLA
# Assay: Immunoprecipitation assay of TPSFSKI peptide phage and LRP-1, confirmed by western blotting
# Type: binding
# Details: proteins extracted from colon cancer tissues, 0 Gy/2 Gy irradiation, LRP-1 and M13 antibodies, IgG beads
# Excerpt: Lysate: 0 Gy/2 Gy protein extracted from radiation colon cancer tissue, IP (B5 phage): 0 Gy/2 Gy Immunoprecipitation with a specific peptide phage in protein extracted from radiation colon cancer tissue, IP (wt phage): 0 Gy/2 Gy Immunoprecipitation in protein extracted from radiation colon cancer tissue with phage without peptide, IP (w/o Ab): 0 Gy/2 Gy Immunoprecipitation without antibody in protein extracted from radiation colon cancer tissue, phage lysate: protein extracted from peptide phage targeting by irradiation in radiation resistant colon cancer tissue, Antibody: LRP-1 antibody
# Based on the indirect verification that LRP-1 is a binding partner protein of the TPSFSKI peptide sequence in Examples 3 to 5, an immunoprecipitation assay was performed to directly determine whether […] was bound to the TPSFSKI sequence. Proteins were extracted from colon cancer tissues of each case according to radiation irradiation, and immunoprecipitation was performed using LRP-1 and M13 antibodies and IgG beads.
substance,measurement,value
"TPSFSKI [TPSFSKI peptide, used as peptide phage]",binding of LRP-1 to the TPSFSKI sequence (immunoprecipitation),LRP-1 is a binding partner protein of TPSFSKI peptide
